Patent publication US20090324601A1 (published 2009)
Substitutions are numbered along the chain they refer to.

B1: 2.796.2 (antibody, V domains shown)
VH: QVQLVESGGGLVKPGGSLRLSCAASGFTFSDYYMNWIRQAPGKGLEWVSYISSSGSIIYYADSVKGRFTISRDNAKNSLYLQMNSLRAEDTAVYYCARDGHIAARGMDVWGQGTTVTVSS
VL: DIQMTQSPSSLSASVGDRVTITCRASQSFSRYINWYQQKPGKAPKLLIYAASSLQGGVPSRFSGSGSGTDFTLTISSLQPEDFATYYCQQTYSNPPITFGQGTRLEIK
B2: 2.2071.1.3 (antibody, V domains shown)
VH: B1 VH with H101R, A103V
VL: B1 VL with I21L, Q27H, F29I, S30N, G56S, S65N, T91S, N94T, K108T
B3: 2.414.2 (antibody, V domains shown)
VH: QLQLQESGPGLVKPSETLSLTCTVSGGSISSSNYYWGWIRQPPGKGLEWIGTIYYTGSTYYNPSLKSRVTISVDTSKNQFSLKLSSVTAADTAVYYCARHHWVFDYWGQGTLVTVSS
VL: EIVLTQSPDFLSVTPKEKVTITCRASQIIGSSLHWYQQKPDQSPKLLIKYASQSFSGVPSRFSGSGSGTDFTLTLNSLEAEDAATYYCHQSTILPWTFGQGTKVEIK
B4: 2.542.2 (antibody, V domains shown)
VH: B3 VH with N33T, T56S, S85N
VL: B3 VL with K45N, F55V
B5: 5.16.1 (antibody, V domains shown)
VH: QVQLVQSGAEVKKPGASVKVSCKASGYTFTSYYMYWVRQAPGQGLEWMGIINPSGGSTSYAQKFQGRVTMTRDTSTSTVYMELSSLRSEDTAVYYCARGSSPFFDYWGQGTLVTVSS
VL: DIQMTQSPSSLSASVGDRVTITCRASQIISHFLNWYQQKPGKAPKLLVYVASSLQSGVPSRFSGSGSGTDFTLTISSLQPEDFATYYCQQSFSIPLTFGGGTKVEIK
B6: 3.341.2 (antibody, V domains shown)
VH: EVQLVESGGGLVQPGGSLRLSCAASGFTFSSYSMNWVRQAPGKGLEWVSFISGSSSTMYYADSVKGRFTISRDNAKNSLYLQMNSLRDEDTAVYYCARLRYFDWSYAFDIWGQGTMVTVSS
VL: DIQMTQSPSSVSTSVGDRVTITCRASQGIRSWLAWYQQRPGKAPKLLIYAASSLQNGVPSRFSGSGSGTDFTLTISSLQPEDFATYFCQQATSFPFTFGPGTKVDIN
notes: Only variable regions
B7: 2.737.1.4 (antibody, V domains shown)
VH: B1 VH with S30R, N35S, S49A, Y50F, Y80F
VL: B1 VL with F29I, S30N, R31K, G56S, S63N, L73F, S76N, S77T, N94T
B8: 3.341.2 (antibody, V domains shown)
VH: B6 VH
VL: B6 VL
B9: 2.414.2 (antibody, V domains shown)
VH: B3 VH
VL: B3 VL
B10: 2.351.3 (antibody, V domains shown)
VH: QVQLVQSGAEVKKPGASVKVSCKASGYTFIGYYLHWVRQAPGQGLEWMGSINPNSGGTNYAQKFQGRVTMIRDTSINTAYMELSRLRSDDTAVYYCARDKRITMVRGVHYLYYGWDVWGQGTTVTVSS
VL: DIQMTQSPSSLSASVGDRVTITCRASQVISNYLAWYQQKPGKVPQLLIYAASTLQSGVPSRFSGSGSGTDFTLTISSLQPEDVATYYCQNYKSAPWTFGQGTKVEIK
B11: 2.737.1.4 (antibody, V domains shown)
VH: B1 VH with S30R, N35S, S49A, Y50F, Y80F
VL: B1 VL with F29I, S30N, R31K, G56S, S63N, L73F, S76N, S77T, N94T
B12: 2.796.2 (antibody, V domains shown)
VH: B1 VH
VL: B1 VL
B13: 2.542.2 (antibody, V domains shown)
VH: B3 VH with N33T, T56S, S85N
VL: B3 VL with K45N, F55V

Experiments:
[1] = target: T1, murine PDGFRa on NIH3T3 cells (murine, UniProt P26618 25-1089); assay: FACS on NIH3T3 cells, goat anti-human IgG Cy5
T1 construct: whole, on cells; also called mouse PDGFR-alpha
Procedure: To set up animal xenograft studies, mouse cross-reactivity was determined using FACS analysis performed with NIH3T3 cells, a murine fibroblast line which expresses endogenous PDGFRa. […] Cells were rinsed and analyzed by FACS for the presence of Cy5.

[2] = target: PDGFR-alpha on human osteosarcoma MG-63 cells (human, UniProt P16234 24-1089); assay: cell-based or functional assay
[3] = target: T2, PDGFR-alpha on MG-63 cells (human, UniProt P16234 24-1089); assay: cell-based or functional assay
[4] = target: T2, PDGFR-alpha on MG-63 cells; assay: cell-based or functional assay; remark: listed apart in the source

T2 sequence (P16234 24-1089): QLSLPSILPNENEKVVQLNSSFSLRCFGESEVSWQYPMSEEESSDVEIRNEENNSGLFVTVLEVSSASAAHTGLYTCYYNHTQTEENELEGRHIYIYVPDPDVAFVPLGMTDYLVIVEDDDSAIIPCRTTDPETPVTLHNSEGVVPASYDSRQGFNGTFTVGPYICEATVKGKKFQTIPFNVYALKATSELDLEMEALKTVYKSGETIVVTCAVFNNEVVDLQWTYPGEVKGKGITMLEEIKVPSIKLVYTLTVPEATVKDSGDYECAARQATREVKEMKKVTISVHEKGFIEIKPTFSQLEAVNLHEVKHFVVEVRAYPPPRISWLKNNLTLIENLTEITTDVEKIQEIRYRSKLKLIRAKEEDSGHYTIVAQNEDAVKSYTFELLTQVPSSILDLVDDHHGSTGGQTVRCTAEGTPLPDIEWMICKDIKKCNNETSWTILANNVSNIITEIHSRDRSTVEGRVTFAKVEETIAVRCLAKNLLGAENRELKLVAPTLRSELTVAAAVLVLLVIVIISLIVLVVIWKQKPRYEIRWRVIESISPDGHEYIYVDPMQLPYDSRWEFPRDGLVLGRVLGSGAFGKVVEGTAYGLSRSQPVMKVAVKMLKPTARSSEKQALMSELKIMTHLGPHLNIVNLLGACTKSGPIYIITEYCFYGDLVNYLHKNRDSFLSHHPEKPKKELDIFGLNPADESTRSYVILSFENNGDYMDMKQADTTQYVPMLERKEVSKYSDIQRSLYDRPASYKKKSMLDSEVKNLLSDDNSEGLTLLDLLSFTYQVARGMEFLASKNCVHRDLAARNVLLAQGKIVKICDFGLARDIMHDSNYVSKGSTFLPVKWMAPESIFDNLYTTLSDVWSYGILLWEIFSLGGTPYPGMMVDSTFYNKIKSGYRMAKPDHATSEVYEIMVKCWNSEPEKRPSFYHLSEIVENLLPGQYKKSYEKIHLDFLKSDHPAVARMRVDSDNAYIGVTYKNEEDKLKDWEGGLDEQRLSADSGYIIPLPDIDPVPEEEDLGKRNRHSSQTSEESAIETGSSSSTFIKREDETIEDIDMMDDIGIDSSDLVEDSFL
Chain of PDGFR-alpha on human osteosarcoma MG-63 cells (P16234 24-1089): as above
T1 sequence (P26618 25-1089): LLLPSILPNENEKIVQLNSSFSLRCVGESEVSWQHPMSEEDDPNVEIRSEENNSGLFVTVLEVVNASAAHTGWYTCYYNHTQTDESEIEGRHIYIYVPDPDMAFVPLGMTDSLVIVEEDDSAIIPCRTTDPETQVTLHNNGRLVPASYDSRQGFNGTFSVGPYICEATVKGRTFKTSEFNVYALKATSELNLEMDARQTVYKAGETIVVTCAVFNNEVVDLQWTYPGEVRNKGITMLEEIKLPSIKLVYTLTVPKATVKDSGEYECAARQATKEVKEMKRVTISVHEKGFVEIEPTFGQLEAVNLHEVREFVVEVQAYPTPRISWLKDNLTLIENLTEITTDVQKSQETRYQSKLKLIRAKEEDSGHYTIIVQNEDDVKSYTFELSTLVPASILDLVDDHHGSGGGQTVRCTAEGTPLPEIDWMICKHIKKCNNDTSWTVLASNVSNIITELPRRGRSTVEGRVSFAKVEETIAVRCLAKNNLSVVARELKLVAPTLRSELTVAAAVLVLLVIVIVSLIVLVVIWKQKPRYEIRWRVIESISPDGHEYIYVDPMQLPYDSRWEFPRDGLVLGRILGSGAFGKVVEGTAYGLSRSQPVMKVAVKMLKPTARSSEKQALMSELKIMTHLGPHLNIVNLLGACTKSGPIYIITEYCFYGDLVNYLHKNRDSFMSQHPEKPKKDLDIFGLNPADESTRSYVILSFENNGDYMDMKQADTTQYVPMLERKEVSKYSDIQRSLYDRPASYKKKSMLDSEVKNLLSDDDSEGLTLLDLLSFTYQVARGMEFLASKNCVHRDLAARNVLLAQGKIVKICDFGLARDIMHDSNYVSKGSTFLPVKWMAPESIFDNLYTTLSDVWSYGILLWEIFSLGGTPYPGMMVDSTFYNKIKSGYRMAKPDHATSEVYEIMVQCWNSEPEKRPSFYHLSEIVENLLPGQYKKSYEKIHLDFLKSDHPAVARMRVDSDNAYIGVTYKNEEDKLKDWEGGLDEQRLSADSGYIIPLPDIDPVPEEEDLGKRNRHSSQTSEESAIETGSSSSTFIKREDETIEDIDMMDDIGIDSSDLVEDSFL

Binder	binding result [1]	Proliferation Assay: IC50 ng/ml (1-6-06) [2]	Proliferation Assay: IC50 ng/ml (1-23-06) [2]	pTyr Assay: % Inhibition @ 2 µg/ml [2]	Proliferation Assay: IC50 (1-6-06) [2]	Proliferation Assay: IC50 (1-23-06) [2]	PROLIFERATION ASSAY: MG-63 CELLS, IC50 [3]	Average pTyr Inhibition [4]
B1	no binding (tested: 10 ug/ml)	498 ng/mL	757 ng/mL	99%				
B2	no binding (tested: 10 ug/ml)	1280 ng/mL	492 ng/mL	99%	8.5 nM	3.3 nM		
B3	no binding (tested: 10 ug/ml)	658 ng/mL	349 ng/mL	99%	4.4 nM	2.3 nM		
B4	no binding (tested: 10 ug/ml)	1040 ng/mL	652 ng/mL	99%				
B5	no binding (tested: 10 ug/ml)	386 ng/mL	423 ng/mL	99%	2.57 nM	2.81 nM		
B6	no binding (tested: 10 ug/ml)	404 ng/mL	471 ng/mL	100%	2.7 nM	3.1 nM		
B7	no binding (tested: 10 ug/ml)	551 ng/mL	558 ng/mL	99%	3.7 nM	3.73 nM		
B8							3.1 nM	> 100%
B9							2.3 nM	98%
B10							4.3 nM	97%
B11							3.72 nM	93%
B12							5 nM	93%
B13							4.35 nM	91%
